Earlier results, collected in patent publication US20060222641A1, “Method and composition for preventing or reducing edema, deep vein thrombosis and/or pulmonary embolism” (priority 2003, published 2006).

Test system: fibrinolytic activity in the plasma
Settings: oral administration

B1: nattokinase: serine proteinase of approximately 275 amino acids, approximately 27.7 kDa, fibrinolytic enzyme from natto (Bacillus subtilis) (protein)
chain: AQSVPYGISQIKAPALHSQGYTGSNVKVAVIDSGIDSSHPDLNVRGGASFVPSETNPYQDGSSHGTHVAGTIAALNNSIGVLGVAPSASYAVKVLDSTGSGQYSWIINGIEWAISNNMGVINMSLGGPSGSTALKTVVDKAVSSGIVVAAAAGNEGSSGSSSTVGYPAKYPSTIAVGAVNSSNQRASFSSAGSELDVMAPGVSIQSTLPGGTYGAYNGTSMATPHVAGAAALILSKHPTWTNAQVRDRLESTATYLGNSFYYGKGLINVQAAAQ
modifications: Bacillus Subtilis
Fibrinolytic activity in the plasma: significant enhancement
